Like-named read-outs stand apart in the source and are kept apart here. Ends that are not written are not given here.

For one assay, the target named is B*0702T (human, UniProt P61769). In words: FP competition against 1.9 nM FITC-labeled P1(B*0702), 40 µg/ml sHLA B*0702T (955).
Assay [1] deals with soluble HLA-A*0201 (sHLA-A*0201) (human). The assay can be described thus: FP screen.
For assay [2], the target named is T1, soluble HLA-B*2705 (sHLA-B*2705) (human).
T1 construct: Recombinant soluble class I with endogenous peptides, made as m1; negative control
In words: FP screen.

The target in assay [3] is T2, soluble HLA-A*6801 (sHLA-A*6801) (human).
T2 construct: Recombinant soluble class I with endogenous peptides, made as m1
In words: FP screen.

Assay [4] deals with T3, soluble HLA-B*1302 (human).
T3 construct: Member of the panel of 53 single-specificity sHLA
The assay can be described thus: FP screen.

Assay [5] deals with T4, soluble HLA-B*1512 (human).
T4 construct: Member of the panel of 53 single-specificity sHLA
In words: FP screen.

For assay [6], the target named is T5, soluble HLA-A*0301 (human).
T5 construct: Member of the panel of 53 single-specificity sHLA
The assay can be described thus: FP screen.

Assay [7] has as its target T6, soluble HLA-A*6901 (sHLA-A*6901) (human).
T6 construct: Recombinant soluble class I with endogenous peptides, made as m1
In words: FP screen.

The target in assay [8] is T7, soluble HLA-A*2402 (human).
T7 construct: Member of the panel of 53 single-specificity sHLA
In words: FP screen.

A further assay has as its target T8, soluble HLA-A*2301 (human).
T8 construct: Member of the panel of 53 single-specificity sHLA
The assay can be described thus: FP screen.

The next assay concerns the target T9, soluble HLA-A*6601 (human).
T9 construct: Member of the panel of 53 single-specificity sHLA
The assay can be described thus: FP screen.

The target of another assay is T10, soluble HLA-B*4501 (human).
T10 construct: Member of the panel of 53 single-specificity sHLA
The assay can be described thus: FP screen.

For assay [9], the target named is T11, soluble HLA-A*3002 (human).
T11 construct: Member of the panel of 53 single-specificity sHLA
In words: FP screen.

In assay [10] the target is T12, soluble HLA-B*1801 (human).
T12 construct: Member of the panel of 53 single-specificity sHLA
In words: FP screen.

Assay [11] deals with T13, soluble HLA-B*4002 (human).
T13 construct: Member of the panel of 53 single-specificity sHLA
In words: FP screen.

The target in the next assay is T14, soluble HLA-B*4001 (human).
T14 construct: Member of the panel of 53 single-specificity sHLA
In words: FP screen.

Assay [12] deals with T15, soluble HLA-B*4402 (human).
T15 construct: Member of the panel of 53 single-specificity sHLA
In words: FP screen.

Assay [13] addresses T16, soluble HLA-A*0101 (human).
T16 construct: Member of the panel of 53 single-specificity sHLA
The assay can be described thus: FP screen of 53 sHLA with FITC-peptide.

The target of assay [14] is T17, soluble HLA-A*2902 (human).
T17 construct: Member of the panel of 53 single-specificity sHLA
The assay can be described thus: FP screen of 53 sHLA with FITC-peptide.

Assay [15] deals with T18, soluble HLA-A*3601 (human).
T18 construct: Member of the panel of 53 single-specificity sHLA
In words: FP screen of 53 sHLA with FITC-peptide.

The target in assay [16] is T19, soluble HLA-A*3402 (human).
T19 construct: Member of the panel of 53 single-specificity sHLA
In words: FP screen of 53 sHLA with FITC-peptide.

For assay [17], the target named is T20, soluble HLA-A*2601 (human).
T20 construct: Member of the panel of 53 single-specificity sHLA
The assay can be described thus: FP screen of 53 sHLA with FITC-peptide.

Another assay deals with T21, soluble HLA-B*1501 (human).
T21 construct: Member of the panel of 53 single-specificity sHLA
In words: FP screen of 53 sHLA with FITC-peptide.

The target in assay [18] is soluble HLA-A*0201 (sHLA-A*0201) (human). In words: FP screen. This is another data set of the same source.
In assay [19] the target is T1, soluble HLA-B*2705 (sHLA-B*2705). The assay can be described thus: FP screen. This is another data set of the same source.
Assay [20] has as its target T2, soluble HLA-A*6801 (sHLA-A*6801). In words: FP screen. This is another data set of the same source.
Assay [21] deals with T16, soluble HLA-A*0101. In words: FP screen.
The target in assay [22] is T18, soluble HLA-A*3601. In words: FP screen.
Assay [23] deals with T19, soluble HLA-A*3402. The assay can be described thus: FP screen.
In assay [24] the target is T20, soluble HLA-A*2601. The assay can be described thus: FP screen.
Assay [25] addresses T3, soluble HLA-B*1302. The assay can be described thus: FP screen. This is another data set of the same source.
The target of assay [26] is T4, soluble HLA-B*1512. The assay can be described thus: FP screen. The source holds these as a separate data set.
The target in assay [27] is T5, soluble HLA-A*0301. In words: FP screen. This is another data set of the same source.
Assay [28] has as its target T11, soluble HLA-A*3002. The assay can be described thus: FP screen. This is another data set of the same source.
The target in assay [29] is T12, soluble HLA-B*1801. The assay can be described thus: FP screen. The source holds these as a separate data set.
Assay [30] deals with T13, soluble HLA-B*4002. The assay can be described thus: FP screen. This is another data set of the same source.
Assay [31] deals with T15, soluble HLA-B*4402. The assay can be described thus: FP screen. This is another data set of the same source.
For assay [32], the target named is T22, soluble HLA-A*4301 (sHLA-A*4301) (human).
T22 construct: Recombinant soluble class I with endogenous peptides, made as m1
In words: FP screen.

Assay [33] deals with T23, soluble HLA-A*1102 (sHLA-A*1102) (human, UniProt P04439 25-308; P61769 21-119).
T23 construct: Recombinant soluble class I with endogenous peptides, made as m1
In words: FP screen.

Assay [34] concerns the target T7, soluble HLA-A*2402. In words: FP screen of 53 sHLA with FITC-peptide.
The target in assay [35] is T5, soluble HLA-A*0301. The assay can be described thus: FP competition against 1.8 nM FITC-labeled P1(A*0301), 42.1 µg/ml sHLA A*0301T (2798).
The target in assay [36] is T16, soluble HLA-A*0101. The assay can be described thus: FP competition against 1.6 nM FITC-labeled P2(A*0101), 41.0 µg/ml sHLA A*0101T (C22).
In assay [37] the target is T17, soluble HLA-A*2902. The assay can be described thus: FP competition against 1.5 nM FITC-labeled P2(A*0101), 49.9 µg/ml sHLA A*2902T (1224).

B1: LVMAPRTVL (peptide)
peptide: LVMAPRTVL
The molecule B1 gave an IC50 with B*0702T of 0.276 µM.

B2: YTDGVPLKY, FITC-labeled A1-like peptide (peptide)
peptide: YTDGVPLKY
modifications: also: FITC-labeled, position not given here
For the molecule B2, the binding result (in assay [1]; in assay [2]; in assay [3]; with soluble HLA-B*1302 [4]; in the assay with soluble HLA-B*1512 [5]; with soluble HLA-A*0301 [6]) was “no binding (tested: 100 ug/ml sHLA)” throughout. Also, the binding result (in [7]; in the assay with soluble HLA-A*2402 [8]; in the assay with soluble HLA-A*2301; with soluble HLA-A*6601; with soluble HLA-B*4501; with soluble HLA-A*3002 [9]) was “no binding (tested: 100 ug/ml sHLA)” throughout. The binding result with soluble HLA-B*1801 [10] is on record as “no binding (tested: 100 ug/ml sHLA)”; with soluble HLA-B*4002 [11] it was “no binding (tested: 100 ug/ml sHLA)”; in the assay with soluble HLA-B*4001, “no binding (tested: 100 ug/ml sHLA)”; with soluble HLA-B*4402 [12] it was “no binding (tested: 100 ug/ml sHLA)”; with soluble HLA-A*0101 [13] it was “binds”; with soluble HLA-A*2902 [14], “binds”. For the same molecule, the binding result with soluble HLA-A*3601 [15], with soluble HLA-A*3402 [16], with soluble HLA-A*2601 [17] and with soluble HLA-B*1501 was “binds” throughout.

B3: KYPENKFLL, FITC-labeled A24-like peptide (peptide)
peptide: KYPENKFLL
modifications: also: FITC-labeled, position not given here
Regarding B3, the binding result (in [18]; in assay [19]; in [20]; with soluble HLA-A*0101 [21]; with soluble HLA-A*3601 [22]; with soluble HLA-A*3402 [23]) was “no binding (tested: 100 ug/ml sHLA)” throughout. For the same molecule, the binding result in the assay with soluble HLA-A*2601 [24], with soluble HLA-B*1302 [25], with soluble HLA-B*1512 [26], with soluble HLA-A*0301 [27], with soluble HLA-A*3002 [28] and with soluble HLA-B*1801 [29] was “no binding (tested: 100 ug/ml sHLA)” in each case. Further, the binding result with soluble HLA-B*4002 [30] was “no binding (tested: 100 ug/ml sHLA)”; with soluble HLA-B*4402 [31] it was “no binding (tested: 100 ug/ml sHLA)”; in assay [32], “no binding (tested: 100 ug/ml sHLA)”; in assay [33], “no binding (tested: 100 ug/ml sHLA)”; in the assay with soluble HLA-A*2402 [34], “binds”.

B4: C2(A*0301) (peptide)
peptide: SLFRAVITK
B4 registered an IC50 in the assay with soluble HLA-A*0301 [35] of 0.518 µM.

B5: C1(A*0101) (peptide)
peptide: ATDFKFAMY
With B5, the concentration for half-maximal inhibition (IC50) in the assay with soluble HLA-A*0101 [36] was found to be 1.57 µM; in the assay with soluble HLA-A*2902 [37] it was 8.63 µM.

Source of the values: patent US20140093973A1 (BOARD OF REGENTS OF THE UNIVERSITY OF OKLAHOMA, published 2014).
